B1: Q61263 (protein, UniProt Q61263 1-540, looked up)
chain: MSLRNRLSKSGENPEQDEAQKNFMDTYRNGHITMKQLIAKKRLLAAEAEELKPLFMKEVGCHFDDFVTNLIEKSASLDNGGCALTTFSILEEMKKNHRAKDLRAPPEQGKIFISRQSLLDELFEVDHIRTIYHMFIALLILFVLSTIVVDYIDEGRLVLEFNLLAYAFGKFPTVIWTWWAMFLSTLSIPYFLFQRWAHGYSKSSHPLIYSLVHGLLFLVFQLGVLGFVPTYVVLAYTLPPASRFILILEQIRLIMKAHSFVRENIPRVLNAAKEKSSKDPLPTVNQYLYFLFAPTLIYRDNYPRTPTVRWGYVAMQFLQVFGCLFYVYYIFERLCAPLFRNIKQEPFSARVLVLCVFNSILPGVLILFLSFFAFLHCWLNAFAEMLRFGDRMFYKDWWNSTSYSNYYRTWNVVVHDWLYYYVYKDLLWFFSKRFKSAAMLAVFALSAVVHEYALAICLSYFYPVLFVLFMFFGMAFNFIVNDSRKRPIWNIMVWASLFLGYGLILCFYSQEWYARQHCPLKNPTFLDYVRPRTWTCRYVF
modifications: full-length
B2: Q60673 (protein, UniProt Q60673 1-979, looked up)
chain: MRRPRRPGGSGGSGGSGGLRLLVCLLLLSGRPGGCSAISAHGCLFDRRLCSHLEVCIQDGLFGQCQAGVGQARPLLQVTSPVLQRLQGVLRQLMSQGLSWHDDLTQHVISQEMERIPRLRPPEPHPRDRSGLVPRKPGPAGELLTQGNPTGSSPAAQGFPRPAGGRSWGGSPLSSLQAELLPPLLEHLLMPPQPPHPALTYEPALLQPYLFHQFGSRDGSRGSESSSGVVGVGHLSKAEGPALFSRSASKAILGTHSGHSFGDLTGPSPAQLFQDSGLLYMAQELPVPGRARAPRLPENGGNRAEDSSEGHEEEVLGGRGEKSPPQAAQPELSLQRLTAVLAGYGVELRQLTPEQFSTLLTLLQLLPKGTGRNLEGAVNVGGADVKKTIQQMQRGDPAEALPPTPSLPGYLTASPASSEVQQVLSPGFPEPPHTPSPLGSSSVLLEKKSPLGQSQPTVVGRPSARPSAEEYGYIVTDQKPLSLVAGVRLLEILAEHVHMSSGSFINISVVGPAVTFRIRHNEQNLSLADVTQQAGLVKSELEAQTGLQILQTGVGQREEAAEVLPRQAHGISPMRSVLLTLVALAGVAGLLVALAVALCMRHHSRQRDKERLAALGPEGAHGDTTFEYQDLCRQHMATKSLFNRAEGQPEPSRVSSVSSQFSDAAQASPSSHSSTPSWCEEPAQANMDISTGHMILAYMEDHLRNRDRLAKEWQALCAYQAEPNTCAAAQDESNIKKNRHPDFLPYDHARIKLKVESSPSRSDYINASPIIEHDPRMPAYIATQGPLSHTIADFWQMVWESGCTVIVMLTPLVEDGVKQCDRYWPDEGSSLYHVYEVNLVSEHIWCEDFLVRSFYLKNLQTQETRTLTQFHFLSWPAEGTPASTRPLLDFRRKVNKCYRGRSCPIIVHCSDGAGRTGTYILIDMVLNRMAKGVKEIDIAATLEHVRDQRPGLVRSKDQFEFALTAVAEEVNAILKALPQ
modifications: full-length
B3: Q62395 (protein, UniProt Q62395 1-81, looked up)
chain: METRALWLMLLVVLVAGSSGIAADYVGLSPSQCMVPANVRVDCGYPSVTSEQCNNRGCCFDSSIPNVPWCFKPLQETECTF
modifications: full-length
B4: Q60604 (protein, UniProt Q60604 1-715, looked up)
chain: MAQELQHPEFARAGQQAGLQVWRVEKLELVPVPQGAYGDFYVGDAYLVLHTTKSSRGFSYRLHFWLGKECSQDESTAAAIFTVQMDDYLGGKPVQSRELQGYESTDFVGYFKGGLKYKAGGVASGLNHVLTNDLTAKRLLHVKGRRVVRATEVPLSWESFNKGDCFIIDLGTEIYQWCGSSCNKYERLKASQVAIGIRDNERKGRSQLIVVEEGSEPSELMKVLGRKPELPDGDNDDDVVADISNRKMAKLYMVSDASGSMKVTLVAEENPFSMGMLLSEECFILDHGAAKQIFVWKGKNANPQERKTAMKTAEEFLQKMKYSTNTQIQVLPEGGETPIFKQFFKDWKDKDQSDGFGKVYITEKVAQIKQIPFDASKLHSSPQMAAQHNMVDDGSGGVEIWRVENSGRVQIDPSSYGEFYGGDCYIILYTYPRGQIIYTWQGANATRDELTMSAFLTVQLDRSLGGQAVQVRVSQGKEPAHLLSLFKDKPLIIYKNGTSKKEGQAPAPPTRLFQVRRNLASITRIVEVDVDANSLNSNDTFVLKLPRNNGFIWIGKGASQEEEKGAEYVADVLKCKASRIQEGKEPEEFWNSLGGRGDYQTSPLLETRAEDHPPRLYGCSNKTGRFIIEEVPGEFTQDDLAEDDVMLLDAWEQIFIWIGKDANEVEKKESVKSAKMYLETDPSGRDKRTPIVIIKQGHEPPTFTGWFLGWDSSRW
modifications: full-length
B5: Q5HZI2 (protein, UniProt Q5HZI2 1-419, looked up)
chain: MRKTNMWFLERLRGSGENGASRGEAGDKSSKGPLYSNVLTPDKIPDFFIPPKLPSGPTEAEGQADLGPSTSEQNLASPGPRRAPRSPRLPAKLASESRSLLKAATRHVIQIESAEDWTAEEATNADPQAQGAMSLPSVPKAQTSYGFATLAESPHTRRKESLFHSEHGALAQVGSPGAGRRRAGAKGNGGDGGSREVGGALMSPSRYFSGGESDTGSSAESSPFGSPLLSRSVSLLKGFAQDSQAKVSQLKQSVGRHGSLSADDSTPDTSPGVRRRLSRRATPEPGPESGQAPRGEHTVKMGTRGSVRLLAEYEAAQARLRVRLLAAEGLYDRPCDARSINCCVGLCLVPGKLQKQRSTIIKNSRHPIFNEDFFFDGLGPASVRKLALRIKVVNKGSSLKRDTLLGEEELPLTSLLPFL
modifications: full-length
B6: Q62431 (protein, UniProt Q62431 1-601, looked up)
chain: MKLQAVMETLIQRQQRARQELEARQAPPPPPPEPTGVRARTTMTDEDREPENARMHRTQMAALAAMRAAAAGLGHPSSPGGSEDGPPISGDEDTAREGTLSSPALHGSVLEGAGHAEGDRHLMDVGSDDDDTKSKWEEQELEELGEEEEEEEEEDDFEEEEEEEEGLGPPESASLGTAGLFTRKAPPAQAFRGDGGPRMLSGPERLGPGPAHPSHMASQMPPPDHGDWTFEEQFKQLYELDADPKRKEFLDDLFSFMQKRGTPVNRIPIMAKQVLDLFMLYVLVTEKGGLVEVINKKLWREITKGLNLPTSITSAAFTLRTQYMKYLYPYECERRGLSSPNELQAAIDSNRREGRRQSFGGSLFAYSPSGAHSMLPSPKLPVTPLGLAASTNGSSITPAPKIKKEEDSAIPITVPGRLPVSLAGHPVVAAQAAAVQAAAAQAAVAAQAAALEQLREKLESTEPPEKKMALVADEQQRLMQRAVQQSFLAMTAQLPMNIRINSQASESRQDSAVSLTSANGSNSISMSVEMNGIVYTGVLFAQPPPPTAPSAPGKGGVSSIGTNTTTGSRTGASGSTVSGGQVGLPGVSTPTMSSTSNNSLP
modifications: full-length
B7: Q64176 (protein, UniProt Q64176 1-562, looked up)
chain: MCLSALILVSLAAFTAGAGHPSSPPMVDTVQGKVLGKYISLEGFTQPVAVFLGVPFAKPPLGSLRFAPPQPAEPWSSVKNATSYPPMCFQDPVTGQIVNDLLTNRKEKIPLQFSEDCLYLNIYTPADLTKSDRLPVMVWIHGGGLVLGGASTYDGLVLSTHENVVVVVIQYRLGIWGFFSTGDEHSRGNWGHLDQVAALHWVQDNIAKFGGDPGSVTIFGESAGGESVSVLVLSPLAKNLFQRAISESGVALTAGLVKKNTRPLAEKIAVISGCKNTTSAAMVHCLRQKTEEELLGTTLKLNLFKLDLHGDSRQSHPFVPTVLDGVLLPKMPEEILAEKNFNTVPYIVGINKQEFGWILPTMMNYPPSDVKLDQMTAMSLLKKSSFLLNLPEDAIAVAIEKYLRDKDYTGRNKDQLLELIGDVVFGVPSVIVSRGHRDAGAPTYMYEFQYSPSFSSEMKPDTVVGDHGDEIYSVFGAPILRGGTSEEEINLSKMMMKFWANFARNGNPNGQGLPHWPEYDQKEGYLQIGATTQQAQKLKEKEVAFWTELLAKKQLPTEHTEL
modifications: full-length
B8: Q61391 (protein, UniProt Q61391 1-750, looked up)
chain: MGRSESQMDITDINAPKPKKKQRWTPLEISLSVLVLLLTIIAVTMIALYATYDDGICKSSDCIKSAARLIQNMDASVEPCTDFFKYACGGWLKRNVIPETSSRYSNFDILRDELEVILKDVLQEPKTEDIVAVQKAKTLYRSCINESAIDSRGGQPLLKLLPDIYGWPVASDNWDQTYGTSWTAEKSIAQLNSKYGKKVLINFFVGTDDKNSTQHIIHFDQPRLGLPSRDYYECTGIYKEACTAYVDFMISVARLIRQEQSLPIDENQLSLEMNKVMELEKEIANATTKPEDRNDPMLLYNKMTLAKLQNNFSLEVNGKSFSWSNFTNEIMSTVNINIQNEEEVVVYAPEYLTKLKPILTKYSPRDLQNLMSWRFIMDLVSSLSRNYKESRNAFRKALYGTTSETATWRRCANYVNGNMENAVGRLYVEAAFAGESKHVVEDLIAQIREVFIQTLDDLTWMDAETKKKAEEKALAIKERIGYPDDIISNENKLNNEYLELNYREDEYFENIIQNLKFSQSKQLKKLREKVDKDEWISGAAVVNAFYSSGRNQIVFPAGILQPPFFSAQQSNSLNYGGIGMVIGHEITHGFDDNGRNFNKDGDLVDWWTQQSANNFKDQSQCMVYQYGNFSWDLAGGQHLNGINTLGENIADNGGIGQAYRAYQNYVKKNGEEKLLPGLDLNHKQLFFLNFAQVWCGTYRPEYAVNSIKTDVHSPGNFRIIGTLQNSAEFADAFHCRKNSYMNPERKCRVW
modifications: full-length

Test system: intracellular proteome of ENR+CD and ENR organoids
Experiment: LC-MS/MS TMT proteomics of ENR+CD versus ENR organoids
Format: cell-based, C57BL/6 mice
Conditions: ENR+CD versus ENR organoids, sample pairs in aggregate (n=4, 2 technical replicates from two biological donors)

Molecule | Average logFC
B1 | 1.308
B2 | 1.189
B3 | 1.185
B4 | −1.3
B5 | 1.158
B6 | 1.251
B7 | −1.21
B8 | −1.133

Same assay, conditions: protein abundance ratio ENR+CD versus ENR organoids, sample pair M1-1; LC-MS/MS TMT proteomics

Molecule | M1-1 Log2 Median Normalized
B1 | 1.563
B2 | 1.189
B3 | 1.037
B4 | −1.236
B5 | 0.822
B6 | 1.672
B7 | −1.21
B8 | −0.83

Same assay, conditions: protein abundance ratio ENR+CD versus ENR organoids, sample pair M1-2; LC-MS/MS TMT proteomics

Molecule | M1-2 Log2 Median Normalized
B1 | 2.15
B2 | 1.249
B3 | 1.294
B4 | −2.062
B5 | 0.518
B6 | 1.343
B7 | −1.557
B8 | −1.694

Same assay, conditions: protein abundance ratio ENR+CD versus ENR organoids, sample pair M2-1; LC-MS/MS TMT proteomics

Molecule | M2-1 Log2 Median Normalized
B1 | 1.0245
B2 | 0.8005
B3 | 0.4235
B4 | −1.8295
B5 | 1.5305
B6 | 1.2465
B7 | −1.2065
B8 | 1.3345

Same assay, conditions: protein abundance ratio ENR+CD versus ENR organoids, sample pair M2-2; LC-MS/MS TMT proteomics

Molecule | M2-2 Log2 Median Normalized
B1 | 0.494
B2 | 1.265
B3 | 1.984
B4 | −0.073
B5 | 1.762
B6 | 0.741
B7 | −1.062
B8 | −0.675

Same assay, conditions: up = enriched in ENR+CD, down = enriched in ENR; FDR<0.05 and log fold change cut-off

Molecule | change
B1 | up
B2 | up
B3 | up
B4 | down
B5 | up
B6 | up
B7 | down
B8 | down

From patent US11994512B2, “Single-cell genomic methods to generate ex vivo cell systems that recapitulate in vivo biology with improved fidelity” (Massachusetts Institute of Technology, priority 2018, dated 2024)
